Data as given in publication PMC4686654, “A molecular ruler regulates cytoskeletal remodelling by the Rho kinases” (Nature Communications, 2015).

How the values were obtained:
[1] = target: T1, RBD fragment of human ROCK2 (977-1,047) (human, UniProt O75116 977-1047); assay: SEC; Superdex 75 in 20 mM Tris pH 7.5, 100 mM NaCl, 1 mM TCEP, 4 mM MgCl2; settings: both partners purified
T1 chain: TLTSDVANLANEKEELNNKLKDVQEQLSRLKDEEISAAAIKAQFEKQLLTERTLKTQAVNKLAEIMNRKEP

[2] = target: human ROCK2 1-408 (kinase domain alone) (human); assay: not stated; recombinant catalytic domain in solution; settings: both partners purified
[3] = target: the molecule itself; assay: SEC; Superdex 75 in 20 mM Tris pH 7.5, 100 mM NaCl, 1 mM TCEP, 4 mM MgCl2
[4] = target: the molecule itself; assay: static light scattering; recombinant ROCK2 in solution; mass 327 kDa, polydispersity index 1.000

B1: RBD fragment of human ROCK2 (977-1,047) (domain or fragment)
chain: TLTSDVANLANEKEELNNKLKDVQEQLSRLKDEEISAAAIKAQFEKQLLTERTLKTQAVNKLAEIMNRKEP
modifications: none; His6 tag omitted. The limits are read in O75116 numbering: the fragment is said to match the crystal-structure RBD, and ROCK1 947-1015 (RhoBD 949-1015) aligns with O75116 979-1047 (RhoBD), so …
[1]
  stoichiometry N: 2

B2: human ROCK2 1-408 (kinase domain alone) (domain or fragment)
chain: MPGAPETAPGDGAGASRQRKLEALIRDPRSPINVESLLDGLNSLVLDLDFPALRKNKNIDNFLNRYEKIVKKIRGLQMKAEDYDVVKVIGRGAFGEVQLVRHKASQKVYAMKLLSKFEMIKRSDSAFFWEERDIMAFANSPWVVQLFYAFQDDRYLYMVMEYMPGGDLVNLMSNYDVPEKWAKFYTAEVVLALDAIHSMGLIHRDVKPDNMLLDKHGHLKLADFGTCMKMDETGMVHCDTAVGTPDYISPEVLKSQGGDGFYGRECDWWSVGVFLYEMLVGDTPFYADSLVGTYSKIMDHKNSLCFPEDAEISKHAKNLICAFLTDREVRLGRNGVEEIRQHPFFKNDQWHWDNIRETAAPVVPELSSDIDSSNFDDIEDDKGDVETFPIPKAFVGNQLPFIGFTYYR
modifications: paper residues 1-408 on the 1,379-residue form = O75116 10-417; activation loop not phosphorylated; constitutive dimer; tag cleaved / paper residues 1-408 on the 1,379-residue form = O75116 10-417 …
[2]
  stoichiometry N: 2

B3: RBD fragment of human ROCK1 (947-1,015) (domain or fragment, UniProt Q13464 947-1015, looked up)
chain: MLTKDIEILRRENEELTEKMKKAEEEYKLEKEEEISNLKAAFEKNINTERTLKTQAVNKLAEIMNRKDF
notes: also called ROCK1 RBD; source: E. coli BL21 (DE3), purified (NiNTA, Superdex 75)
[3]
  stoichiometry N: 2

B4: human ROCK2 (Rho-associated coiled-coil kinase 2), full-length recombinant (enzyme)
chain: MPGAPETAPGDGAGASRQRKLEALIRDPRSPINVESLLDGLNSLVLDLDFPALRKNKNIDNFLNRYEKIVKKIRGLQMKAEDYDVVKVIGRGAFGEVQLVRHKASQKVYAMKLLSKFEMIKRSDSAFFWEERDIMAFANSPWVVQLFYAFQDDRYLYMVMEYMPGGDLVNLMSNYDVPEKWAKFYTAEVVLALDAIHSMGLIHRDVKPDNMLLDKHGHLKLADFGTCMKMDETGMVHCDTAVGTPDYISPEVLKSQGGDGFYGRECDWWSVGVFLYEMLVGDTPFYADSLVGTYSKIMDHKNSLCFPEDAEISKHAKNLICAFLTDREVRLGRNGVEEIRQHPFFKNDQWHWDNIRETAAPVVPELSSDIDSSNFDDIEDDKGDVETFPIPKAFVGNQLPFIGFTYYRENLLLSDSPSCRETDSIQSRKNEESQEIQKKLYTLEEHLSNEMQAKEELEQKCKSVNTRLEKTAKELEEEITLRKSVESALRQLEREKALLQHKNAEYQRKADHEADKKRNLENDVNSLKDQLEDLKKRNQNSQISTEKVNQLQRQLDETNALLRTESDTAARLRKTQAESSKQIQQLESNNRDLQDKNCLLETAKLKLEKEFINLQSALESERRDRTHGSEIINDLQGRICGLEEDLKNGKILLAKVELEKRQLQERFTDLEKEKSNMEIDMTYQLKVIQQSLEQEEAEHKATKARLADKNKIYESIEEAKSEAMKEMEKKLLEERTLKQKVENLLLEAEKRCSLLDCDLKQSQQKINELLKQKDVLNEDVRNLTLKIEQETQKRCLTQNDLKMQTQQVNTLKMSEKQLKQENNHLMEMKMNLEKQNAELRKERQDADGQMKELQDQLEAEQYFSTLYKTQVRELKEECEEKTKLGKELQQKKQELQDERDSLAAQLEITLTKADSEQLARSIAEEQYSDLEKEKIMKELEIKEMMARHKQELTEKDATIASLEETNRTLTSDVANLANEKEELNNKLKDVQEQLSRLKDEEISAAAIKAQFEKQLLTERTLKTQAVNKLAEIMNRKEPVKRGNDTDVRRKEKENRKLHMELKSEREKLTQQMIKYQKELNEMQAQIAEESQIRIELQMTLDSKDSDIEQLRSQLQALHIGLDSSSIGSGPGDAEADDGFPESRLEGWLSLPVRNNTKKFGWVKKYVIVSSKKILFYDSEQDKEQSNPYMVLDIDKLFHVRPVTQTDVYRADAKEIPRIFQILYANEGESKKEQEFPVEPVGEKSNYICHKGHEFIPTLYHFPTNCEACMKPLWHMFKPPPALECRRCHIKCHKDHMDKKEEIIAPCKVYYDISTAKNLLLLANSTEEQQKWVSRLVKKIPKKPPAPDPFARSSPRTSMKIQQNQSIRRPSRQLAPNKPS
modifications: mono- and diphosphorylated species, two adjacent serines (1,352-1,353)
[4]
  stoichiometry N: 2
